# B1: PiggyBac transposable element-derived protein 1 (Homo sapiens), Q96JS3 (parent)
# chain: MYEALPGPAPENEDGLVKVKEEDPTWEQVCNSQEGSSHTQEICRLRFRHFCYQEAHGPQEALAQLRELCHQWLRPEMHTKEQIMELLVLEQFLTILPKELQPCVKTYPLESGEEAVTVLENLETGSGDTGQQASVYIQGQDMHPMVAEYQGVSLECQSLQLLPGITTLKCEPPQRPQGNPQEVSGPVPHGSAHLQEKNPRDKAVVPVFNPVRSQTLVKTEEETAQAVAAEKWSHLSLTRRNLCGNSAQETVMSLSPMTEEIVTKDRLFKAKQETSEEMEQSGEASGKPNRECAPQIPCSTPIATERTVAHLNTLKDRHPGDLWARMHISSLEYAAGDITRKGRKKDKARVSELLQGLSFSGDSDVEKDNEPEIQPAQKKLKVSCFPEKSWTKRDIKPNFPSWSALDSGLLNLKSEKLNPVELFELFFDDETFNLIVNETNNYASQKNVSLEVTVQEMRCVFGVLLLSGFMRHPRREMYWEVSDTDQNLVRDAIRRDRFELIFSNLHFADNGHLDQKDKFTKLRPLIKQMNKNFLLYAPLEEYYCFDKSMCECFDSDQFLNGKPIRIGYKIWCGTTTQGYLVWFEPYQEESTMKVDEDPDLGLGGNLVMNFADVLLERGQYPYHLCFDSFFTSVKLLSALKKKGVRATGTIRENRTEKCPLMNVEHMKKMKRGYFDFRIEENNEIILCRWYGDGIISLCSNAVGIEPVNEVSCCDADNEEIPQISQPSIVKVYDECKEGVAKMDQIISKYRVRIRSKKWYSILVSYMIDVAMNNAWQLHRACNPGASLDPLDFRRFVAHFYLEHNAHLSD
# B2: Inactive peptidyl-prolyl cis-trans isomerase FKBP6 (Homo sapiens), O75344 (parent)
# chain: MGGSALNQGVLEGDDAPGQSLYERLSQRMLDISGDRGVLKDVIREGAGDLVAPDASVLVKYSGYLEHMDRPFDSNYFRKTPRLMKLGEDITLWGMELGLLSMRRGELARFLFKPNYAYGTLGCPPLIPPNTTVLFEIELLDFLDCAESDKFCALSAEQQDQFPLQKVLKVAATEREFGNYLFRQNRFYDAKVRYKRALLLLRRRSAPPEEQHLVEAAKLPVLLNLSFTYLKLDRPTIALCYGEQALIIDQKNAKALFRCGQACLLLTEYQKARDFLVRAQKEQPFNHDINNELKKLASCYRDYVDKEKEMWHRMFAPCGDGSTAGES
# partner: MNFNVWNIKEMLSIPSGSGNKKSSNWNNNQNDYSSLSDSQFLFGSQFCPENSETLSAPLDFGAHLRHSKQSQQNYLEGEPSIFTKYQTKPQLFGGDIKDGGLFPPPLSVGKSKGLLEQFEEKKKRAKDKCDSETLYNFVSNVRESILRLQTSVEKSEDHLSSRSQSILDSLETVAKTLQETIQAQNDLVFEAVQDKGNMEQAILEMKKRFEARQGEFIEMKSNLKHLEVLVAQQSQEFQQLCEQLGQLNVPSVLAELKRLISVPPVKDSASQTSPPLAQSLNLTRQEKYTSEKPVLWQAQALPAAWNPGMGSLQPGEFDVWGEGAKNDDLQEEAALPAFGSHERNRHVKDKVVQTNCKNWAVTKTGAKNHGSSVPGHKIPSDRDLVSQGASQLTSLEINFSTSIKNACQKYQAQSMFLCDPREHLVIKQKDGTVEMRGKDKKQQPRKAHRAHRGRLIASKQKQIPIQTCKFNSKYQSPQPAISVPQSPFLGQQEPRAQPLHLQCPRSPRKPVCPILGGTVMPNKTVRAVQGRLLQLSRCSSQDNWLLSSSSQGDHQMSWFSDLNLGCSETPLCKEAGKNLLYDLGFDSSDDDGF
# B3: Low density lipoprotein receptor adapter protein 1 (Homo sapiens), Q5SW96 (parent)
# chain: MDALKSAGRALIRSPSLAKQSWGGGGRHRKLPENWTDTRETLLEGMLFSLKYLGMTLVEQPKGEELSAAAIKRIVATAKASGKKLQKVTLKVSPRGIILTDNLTNQLIENVSIYRISYCTADKMHDKVFAYIAQSQHNQSLECHAFLCTKRKMAQAVTLTVAQAFKVAFEFWQVSKEEKEKRDKASQEGGDVLGARQDCTPSLKSLVATGNLLDLEETAKAPLSTVSANTTNMDEVPRPQALSGSSVVWELDDGLDEAFSRLAQSRTNPQVLDTGLTAQDMHYAQCLSPVDWDKPDSSGTEQDDLFSF
# partner: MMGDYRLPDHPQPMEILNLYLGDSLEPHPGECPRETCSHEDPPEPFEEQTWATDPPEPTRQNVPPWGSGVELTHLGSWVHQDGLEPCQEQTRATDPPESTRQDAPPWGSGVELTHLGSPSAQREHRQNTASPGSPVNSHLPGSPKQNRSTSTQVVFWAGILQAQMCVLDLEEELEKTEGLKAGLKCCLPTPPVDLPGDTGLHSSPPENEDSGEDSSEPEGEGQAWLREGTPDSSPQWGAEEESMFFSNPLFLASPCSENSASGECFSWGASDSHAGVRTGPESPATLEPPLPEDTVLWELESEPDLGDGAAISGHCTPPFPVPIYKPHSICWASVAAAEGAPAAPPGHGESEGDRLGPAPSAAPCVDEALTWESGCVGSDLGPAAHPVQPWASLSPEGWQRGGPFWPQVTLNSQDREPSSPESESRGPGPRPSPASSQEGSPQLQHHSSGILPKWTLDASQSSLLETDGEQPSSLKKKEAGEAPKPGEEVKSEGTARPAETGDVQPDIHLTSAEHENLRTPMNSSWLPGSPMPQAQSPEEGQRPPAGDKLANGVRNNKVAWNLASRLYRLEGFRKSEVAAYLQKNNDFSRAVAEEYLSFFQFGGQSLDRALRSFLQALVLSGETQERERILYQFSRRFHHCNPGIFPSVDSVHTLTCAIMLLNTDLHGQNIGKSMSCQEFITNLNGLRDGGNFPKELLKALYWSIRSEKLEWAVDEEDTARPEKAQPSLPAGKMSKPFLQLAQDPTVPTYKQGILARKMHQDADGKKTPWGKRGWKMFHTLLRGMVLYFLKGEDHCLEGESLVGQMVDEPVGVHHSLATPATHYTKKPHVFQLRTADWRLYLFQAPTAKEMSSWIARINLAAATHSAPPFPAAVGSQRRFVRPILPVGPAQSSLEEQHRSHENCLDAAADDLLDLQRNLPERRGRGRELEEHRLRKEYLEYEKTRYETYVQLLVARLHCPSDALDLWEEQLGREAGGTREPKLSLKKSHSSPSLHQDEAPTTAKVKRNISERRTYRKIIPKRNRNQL
# B4: Emerin (Homo sapiens), P50402 (parent)
# chain: MDNYADLSDTELTTLLRRYNIPHGPVVGSTRRLYEKKIFEYETQRRRLSPPSSSAASSYSFSDLNSTRGDADMYDLPKKEDALLYQSKGYNDDYYEESYFTTRTYGEPESAGPSRAVRQSVTSFPDADAFHHQVHDDDLLSSSEEECKDRERPMYGRDSAYQSITHYRPVSASRSSLDLSYYPTSSSTSFMSSSSSSSSWLTRRAIRPENRAPGAGLGQDRQVPLWGQLLLFLVFVIVLFFIYHFMQAEEGNPF
# partner: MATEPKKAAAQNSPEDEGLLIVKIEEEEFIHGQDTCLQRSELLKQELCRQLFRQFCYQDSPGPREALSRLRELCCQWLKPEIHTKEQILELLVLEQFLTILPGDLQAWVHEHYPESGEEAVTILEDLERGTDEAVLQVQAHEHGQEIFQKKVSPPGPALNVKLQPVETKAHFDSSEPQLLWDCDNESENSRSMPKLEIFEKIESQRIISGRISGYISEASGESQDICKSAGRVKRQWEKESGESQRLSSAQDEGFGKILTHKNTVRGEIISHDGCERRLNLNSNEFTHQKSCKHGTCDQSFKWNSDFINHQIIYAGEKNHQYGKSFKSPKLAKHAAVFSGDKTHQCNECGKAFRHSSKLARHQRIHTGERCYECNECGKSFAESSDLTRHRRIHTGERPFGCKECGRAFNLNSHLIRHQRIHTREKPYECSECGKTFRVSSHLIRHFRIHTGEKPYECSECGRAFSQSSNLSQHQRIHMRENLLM
# Variants of: B1
# Conditions: with NR4A1, P22736-2
# NR4A1, P22736-2, sequence (P22736 other isoform, or with tags, fused parts or gaps): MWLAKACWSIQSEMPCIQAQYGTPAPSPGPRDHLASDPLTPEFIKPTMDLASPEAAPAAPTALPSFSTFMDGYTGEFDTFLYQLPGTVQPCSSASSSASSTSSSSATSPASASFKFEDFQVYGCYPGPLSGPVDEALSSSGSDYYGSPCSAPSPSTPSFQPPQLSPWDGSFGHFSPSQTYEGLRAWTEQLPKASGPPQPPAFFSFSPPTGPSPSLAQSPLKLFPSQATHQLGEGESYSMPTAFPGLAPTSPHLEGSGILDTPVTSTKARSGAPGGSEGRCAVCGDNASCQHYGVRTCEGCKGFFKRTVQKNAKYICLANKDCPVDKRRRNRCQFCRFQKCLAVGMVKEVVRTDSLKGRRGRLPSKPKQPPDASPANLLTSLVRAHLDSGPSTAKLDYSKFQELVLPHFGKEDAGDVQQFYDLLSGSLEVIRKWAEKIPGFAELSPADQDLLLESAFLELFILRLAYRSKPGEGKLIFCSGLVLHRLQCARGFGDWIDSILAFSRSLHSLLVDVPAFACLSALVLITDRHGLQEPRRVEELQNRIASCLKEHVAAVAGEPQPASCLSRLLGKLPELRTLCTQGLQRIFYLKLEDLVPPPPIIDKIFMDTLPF
row,effect of a mutation on the interaction,Variant
1,with no effect,I678V
2,with no effect,H806D
3,with no effect,P256L
4,with no effect,G244E

# Variants of: B1
# Conditions: with znf24_human ZNF24, P17028
# znf24_human ZNF24, P17028, sequence (P17028 whole entry): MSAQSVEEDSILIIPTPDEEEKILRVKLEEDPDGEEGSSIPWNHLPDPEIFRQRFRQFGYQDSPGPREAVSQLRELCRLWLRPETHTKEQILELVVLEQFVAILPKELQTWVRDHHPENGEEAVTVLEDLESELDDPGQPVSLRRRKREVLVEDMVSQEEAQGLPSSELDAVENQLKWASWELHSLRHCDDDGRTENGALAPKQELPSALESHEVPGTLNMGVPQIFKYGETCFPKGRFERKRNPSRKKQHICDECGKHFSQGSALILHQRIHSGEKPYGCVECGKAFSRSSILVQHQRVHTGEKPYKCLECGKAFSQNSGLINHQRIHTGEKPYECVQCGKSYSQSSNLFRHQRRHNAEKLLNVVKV
row,effect of a mutation on the interaction,Variant
1,with no effect,I678V
2,with no effect,H806D
3,with no effect,P256L
4,with no effect,G244E

# Variants of: B1
# Conditions: with zn496_human ZNF496, Q96IT1
# zn496_human ZNF496, Q96IT1, sequence (Q96IT1 whole entry): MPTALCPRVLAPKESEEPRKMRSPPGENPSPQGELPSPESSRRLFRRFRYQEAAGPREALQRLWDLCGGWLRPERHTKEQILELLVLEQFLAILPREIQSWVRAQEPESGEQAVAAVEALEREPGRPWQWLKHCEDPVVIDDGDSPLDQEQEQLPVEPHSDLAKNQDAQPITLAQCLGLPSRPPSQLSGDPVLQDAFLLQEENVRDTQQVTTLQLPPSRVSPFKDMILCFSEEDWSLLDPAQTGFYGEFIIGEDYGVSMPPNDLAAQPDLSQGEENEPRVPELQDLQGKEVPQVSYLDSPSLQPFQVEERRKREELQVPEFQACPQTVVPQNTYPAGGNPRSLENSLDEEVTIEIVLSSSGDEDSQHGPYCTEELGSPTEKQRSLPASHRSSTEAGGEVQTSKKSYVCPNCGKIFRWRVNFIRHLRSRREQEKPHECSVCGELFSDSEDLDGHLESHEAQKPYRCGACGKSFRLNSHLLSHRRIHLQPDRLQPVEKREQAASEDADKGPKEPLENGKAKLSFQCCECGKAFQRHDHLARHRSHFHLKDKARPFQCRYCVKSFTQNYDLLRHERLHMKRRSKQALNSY
row,effect of a mutation on the interaction,Variant
1,with no effect,I678V
2,with no effect,H806D
3,with no effect,P256L
4,with no effect,G244E

# Variants of: B1
# Conditions: with zsc22_human ZSCAN22, P10073
# zsc22_human ZSCAN22, P10073, sequence (P10073 whole entry): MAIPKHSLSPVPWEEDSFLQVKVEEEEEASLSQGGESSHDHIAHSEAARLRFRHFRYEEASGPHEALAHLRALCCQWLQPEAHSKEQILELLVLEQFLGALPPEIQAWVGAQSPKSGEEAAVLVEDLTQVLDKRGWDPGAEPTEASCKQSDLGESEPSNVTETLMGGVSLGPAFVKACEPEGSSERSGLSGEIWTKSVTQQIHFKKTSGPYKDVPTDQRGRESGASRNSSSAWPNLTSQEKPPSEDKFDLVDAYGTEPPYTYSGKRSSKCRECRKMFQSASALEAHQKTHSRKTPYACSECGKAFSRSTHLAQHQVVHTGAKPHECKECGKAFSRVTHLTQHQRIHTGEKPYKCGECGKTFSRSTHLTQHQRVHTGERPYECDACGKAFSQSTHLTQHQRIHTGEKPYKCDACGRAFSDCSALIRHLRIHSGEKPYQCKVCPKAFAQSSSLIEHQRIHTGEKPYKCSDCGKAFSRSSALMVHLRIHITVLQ
row,effect of a mutation on the interaction,Variant
1,with no effect,I678V
2,with no effect,H806D
3,with no effect,P256L
4,with no effect,G244E

# Variants of: B1
# Conditions: with meox2_human MEOX2, P50222
# meox2_human MEOX2, P50222, sequence (P50222 whole entry): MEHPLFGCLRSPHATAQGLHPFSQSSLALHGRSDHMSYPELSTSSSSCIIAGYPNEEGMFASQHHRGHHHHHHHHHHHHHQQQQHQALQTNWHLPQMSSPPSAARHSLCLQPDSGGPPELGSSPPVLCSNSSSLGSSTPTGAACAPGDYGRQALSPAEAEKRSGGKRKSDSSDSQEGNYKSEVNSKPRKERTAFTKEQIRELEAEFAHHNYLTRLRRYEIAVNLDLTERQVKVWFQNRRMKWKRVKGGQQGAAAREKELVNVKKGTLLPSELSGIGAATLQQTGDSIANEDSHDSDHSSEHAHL
row,effect of a mutation on the interaction,Variant
1,with no effect,I678V
2,with no effect,H806D
3,with no effect,P256L
4,with no effect,G244E

# Variants of: B2
# Conditions: with iho1_human IHO1, Q8IYA8
row,effect of a mutation on the interaction,Variant
1,with no effect,F72L
2,with no effect,R202H

# Variants of: B3
# Conditions: with PSD4, Q8NDX1-2
row,effect of a mutation on the interaction,Variant
1,with no effect,R238W

# Variants of: B4
# Conditions: with zn165_human ZNF165, P49910
row,effect of a mutation on the interaction,Variant
1,with no effect,P183T

# Reference: IntAct's records for PubMed 25910212
